Data from patent US20260226179A1 (MAB DESIGNS, published 2026).
Where “and” joins values, the source holds several entries; their conditions need not be identical. Identical values can stand only once.

T1: human membrane-bound IL-6R subunit alpha (human, UniProt P08887 20-468)
T1 sequence: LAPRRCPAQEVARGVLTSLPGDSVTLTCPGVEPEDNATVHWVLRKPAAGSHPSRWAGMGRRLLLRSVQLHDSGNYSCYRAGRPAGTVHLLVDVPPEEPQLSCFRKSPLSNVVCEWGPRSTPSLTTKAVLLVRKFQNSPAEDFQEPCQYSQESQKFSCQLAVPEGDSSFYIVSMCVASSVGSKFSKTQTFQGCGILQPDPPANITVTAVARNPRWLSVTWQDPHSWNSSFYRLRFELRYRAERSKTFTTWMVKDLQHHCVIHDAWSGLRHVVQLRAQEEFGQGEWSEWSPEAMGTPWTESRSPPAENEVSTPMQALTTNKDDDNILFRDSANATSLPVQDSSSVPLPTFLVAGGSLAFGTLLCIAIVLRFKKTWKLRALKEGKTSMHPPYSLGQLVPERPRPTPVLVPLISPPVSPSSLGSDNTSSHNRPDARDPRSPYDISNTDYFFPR

T2: human soluble IL-6R (human, UniProt P08887 20-357)
T2 sequence: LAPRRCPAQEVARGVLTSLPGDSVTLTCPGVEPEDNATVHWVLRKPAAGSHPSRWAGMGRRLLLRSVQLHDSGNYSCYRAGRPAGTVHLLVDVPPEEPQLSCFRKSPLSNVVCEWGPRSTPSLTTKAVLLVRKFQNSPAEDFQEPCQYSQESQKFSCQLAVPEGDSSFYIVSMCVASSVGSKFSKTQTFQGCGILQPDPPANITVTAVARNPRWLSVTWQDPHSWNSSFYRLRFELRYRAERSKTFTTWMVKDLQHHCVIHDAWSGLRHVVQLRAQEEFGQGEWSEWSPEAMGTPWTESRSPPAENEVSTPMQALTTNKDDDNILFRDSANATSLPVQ

T3: human soluble IL-6R (human, UniProt P08887 20-357, limits assumed)
T3 sequence: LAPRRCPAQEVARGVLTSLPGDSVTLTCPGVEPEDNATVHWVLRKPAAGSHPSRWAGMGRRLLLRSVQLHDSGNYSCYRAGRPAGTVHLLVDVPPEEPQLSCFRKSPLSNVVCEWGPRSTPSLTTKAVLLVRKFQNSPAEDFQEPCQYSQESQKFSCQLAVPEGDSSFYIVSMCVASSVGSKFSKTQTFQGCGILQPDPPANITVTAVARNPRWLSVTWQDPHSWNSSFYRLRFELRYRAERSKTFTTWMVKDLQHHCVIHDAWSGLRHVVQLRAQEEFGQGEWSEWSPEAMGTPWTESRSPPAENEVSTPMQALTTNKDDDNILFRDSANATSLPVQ


How the values were obtained:
Test in all cases: cell-based or functional assay
[1] = biological target: T1, human membrane-bound IL-6R subunit alpha
[2] = biological target: T2, human soluble IL-6R
[3] = biological target: T2, human soluble IL-6R; remark: listed apart in the source
[4] = biological target: T1, human membrane-bound IL-6R subunit alpha; remark: listed apart in the source
[5] = biological target: T2, human soluble IL-6R; remark: listed apart in the source
[6] = biological target: Hyper-IL-6 (recombinant fusion protein consisting of IL-6 and soluble IL-6R)
[7] = biological target: T3, human soluble IL-6R

Row | Binder | Proliferation in % (Ba/F3_gp130_IL-6R cells, IL-6 + sIL-6R = 100%; combined IL-6 classical and trans signalling; 1% PE) [1] [%] | Classical:trans signalling ratio proliferation [2] [ratio] | Classical:trans signalling ratio intracellular signalling [3] [ratio] | Residual STAT3 phosphorylation in HEK293 (IL-6 + sIL-6R; IL-6 trans signalling; 1% PE) [3] [%] | Residual STAT3 phosphorylation in HEK293_IL-6R (IL-6 + sIL-6R; combined classical and trans signalling; 1% PE) [4] [%] | Proliferation in % (Ba/F3_gp130 cells, IL-6 + sIL-6R = 100%; IL-6 trans signalling; 1% PE) [5] [%] | IC50 of inhibition of proliferation of Ba/F3_gp130 cells induced by 28 ng/ml Hy-IL-6 [6] | IC50 of inhibition of proliferation of Ba/F3_gp130 cells induced by 10 ng/ml IL-6 and 200 ng/ml sIL-6R [7]
1 | candidate anti-IL-6R Fab clone 09 (Fab, V domains shown) VH: EVQLVESGGDLVQPGGSLKLSCAASGFTFSNYGMSWVRQTPDKRLELVAAINSNGGSTYYPDSVKGRFTISRDNAKNTLYLQMSSLKSEDTAMYYCARDGNYVSDYWGQGTTLTVSS VL: DIVLTQSPASLAVSLGQRATISCRASESVDSYGNSFMHWYQQKPGQPPKLLIYLASNLESGVPARFSGSGSRTDFTLTIDPVEADDAATYYCQQNNEDPWTFGGGTKLEIK | 91.6 | 1.3 | 2.2 | 38 | 83 | 69.8 | – | –
2 | candidate anti-IL-6R Fab clone 20 (Fab, V domains shown) VH: EVKLMESGGGLVQPGGSLKLSCAASGFTFSNYGMSWVRQTPDKRLELVAIINSNGGSTYYPDSVKGRFTISRDNAKNTLYLQMSSLKSEDTAIYYCARDGNFVSDYWGQGTTLTVSS VL: DIVLTQSPASLAVSLGQRATISCRASESVDSYGNRFLNWYQQKPGQPPKLLIYLASNLESGVPARFSGSGSRTDFTLTIDPVEADDAATYYCQQNNEDPYTFGGGTKLEIK | 81.9 | 2.2 | 3 | 32 | 97 | 36.6 | – | –
3 | candidate anti-IL-6R Fab clone 12 (Fab, V domains shown) VH: EVKLMESGGGLVQPGGSLKLSCAASGFTFSNYGMSWVRQTPDKRLEWVANINSNGGSTYYPDSVKGRFTISRDNAQNTLYLQMSSLKSEDTAMYYCTRDGNFVSDYWGQGTTLTVSS VL: DIVLTQSPASLAVSPGQRATISCRASESVDSYGNSFMNWYQQKPGQPPKLLIYLASNLESGVPARFSGSGSRTDFTLTIDPVEADDAATYYCQQNNEDPYTFGGGTKLEIK | 61.6 | 1.3 | 2.1 | 42 | 90 | 47.9 | – | –
4 | candidate anti-IL-6R Fab clone 07 (Fab, V domains shown) VH: EVKLVESGGGLVQPGGSLKLSCAASGFTFSSYAMSWVRQTADKRLELVANINSNGGSTYYPDSVKGRFTISRDNAKNTLFLQMSSLKSEDTAMYYCAREGYYTMDYWGQGTSVTVSS VL: DIVLTQSPASLAVSPGQRATISCRASESVDSYGNSFMNWYQQKPGQPPKLLIYLASNLESGVPARFSGSGSRTDFTLTIDPVEADDAATYYCQQNNEDPYTFGGGTKLEIK | 86.1 | 1.5 | 2.8 | 28 | 77 | 55.7 | – | –
5 | anti-IL-6R Fab C20 (purified Fab fragment of C20) (Fab, V domains shown) VH: EVKLMESGGGLVQPGGSLKLSCAASGFTFSNYGMSWVRQTPDKRLELVAIINSNGGSTYYPDSVKGRFTISRDNAKNTLYLQMSSLKSEDTAIYYCARDGNFVSDYWGQGTTLTVSS VL: DIVLTQSPASLAVSLGQRATISCRASESVDSYGNRFLNWYQQKPGQPPKLLIYLASNLESGVPARFSGSGSRTDFTLTIDPVEADDAATYYCQQNNEDPYTFGGGTKLEIK | – | – | – | – | – | – | 98 ng/ml and 1.9 nM | 159 ng/ml and 3.2 nM
6 | candidate anti-IL-6R Fab clone 19 (Fab, V domains shown) VH: EVKLMESGGGLVQPGGSLKLSCAASGFTFSNYGMSWVRQTPDKRLELVAIMNSKGGSTYYPDSVMGRFTISRDNAKNTLYLQMSSLKSEDTAMYYCARDGYYTMDYWGQGTSVTVSS VL: DIVLTQSPASLAVSLGQRATISCRASKSVDSFGNSFMHWYQQKPGQSPRLLIFLASNLESGVPARFSGSGSRTDFTLTIDPVEADDAATYYCQQNNEDPYTFGGGTKLEIK | 73.3 | 1.4 | 3 | 24 | 72 | 53.3 | – | –
